The results in this text go back to patent US5733730, “Telomere repeat binding factor and diagnostic and therapeutic use thereof” (The Rockefeller University).

Data set [1] addresses T1, TRF purified from HeLa nuclear extract (Homo sapiens, UniProt P54274 SEQ:1-439).
T1 chain: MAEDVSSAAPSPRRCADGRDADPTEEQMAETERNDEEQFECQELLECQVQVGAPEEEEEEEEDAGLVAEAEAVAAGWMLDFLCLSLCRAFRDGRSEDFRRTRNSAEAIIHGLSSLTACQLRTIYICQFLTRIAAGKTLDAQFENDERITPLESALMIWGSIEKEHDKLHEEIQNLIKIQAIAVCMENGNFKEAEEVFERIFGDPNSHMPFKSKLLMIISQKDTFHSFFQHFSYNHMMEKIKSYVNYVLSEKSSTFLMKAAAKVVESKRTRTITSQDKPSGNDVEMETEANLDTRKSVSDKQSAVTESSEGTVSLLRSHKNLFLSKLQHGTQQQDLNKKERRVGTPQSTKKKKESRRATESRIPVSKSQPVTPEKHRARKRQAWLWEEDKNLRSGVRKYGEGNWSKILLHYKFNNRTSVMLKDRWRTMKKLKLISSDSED
Description: EMSA; column fractions in 100 mM KCl, 20 mM HEPES, 3 mM MgCl2, 20% glycerol, 0.1% NP-40; binding lost when highly purified, rescued by casein. Particulars: label: radiolabelled. Here is the method:
TRF was isolated from a total of 9.2×10^11 HeLa Cells, equivalent to 940 liters of culture (in Joklik's Media, supplemented with bovine calf serum, 2 mM L-glutamine, 0.1 mM non-essential amino acids, and penicillin/streptomycin). A nuclear extract containing 4 grams of protein and about 650 pmol of TRF (1 pmol TRF is defined as the amount of protein required to complex 1 pmol of labelled probe), as determined by quantitation using a PhosphoImager, was obtained from the cells and the soluble fraction was then purified over a series of ion exchange and affinity columns, as noted above. For each column, the sample was loaded in buffer containing 100 mM KCl and the flow-through was reloaded. The columns were developed in buffer with increasing potassium chloride salt concentration, with a final stripping of the column with 1M salt. All fractions were dialyzed to 100 mM KCl, 20 mM HEPES, 3 mM MgCl_2, 20% glycerol, and 0.1% NP-40 (nonidet-P40). Activity was determined by gel shift assay using a probe of 145 bp fragment containing (TTAGGG)_2 having the following sequence (SEQ D NO:21): […]

For data set [2], the target named is TRF (HTRF4.1, TRF1) partial ORF from N-terminal XhoI site to stop (Homo sapiens, UniProt P54274 SEQ:45-439). Description: EMSA; reticulocyte lysate; no complex without TRF cDNA; text of Example 4 prints probe as (TTAGGG)2. Particulars: tags: His6 (pET28b, Novagen) N-terminal fusion; label: radiolabelled. The source says: Proof that the cDNAs encode TRF activity. One of the human cDNAs (HTRF4.1) was used to construct a fusion protein in which part of the TRF open reading frame from the N-terminal Xho I site to the natural termination codon at the Hind III site was inserted into the pET28b His6Tag expression vector from Novagen (Madison, Wis.). This new, chimeric open reading frame contained an initiator ATG codon with "Kozak rules" environment at its 5' end as well as an T7 RNA polymerase promoter sequence upstream. This construct was used for in vitro coupled transcription/translation (using a kit from Promega) resulting in synthetic protein (labelled with […]) with an apparent molecular weight (MW) of 60 kD. The in vitro synthesized protein was used in a gel-shift assay with a double stranded (TTAGGG)_2 repeat probe and shown to form a complex that migrates close to the HeLa TRF gel-shift complex.

Data set [3] concerns the target T2, TRF (MTRF12, full length) (Mus musculus, UniProt P70371 P70371:1-421).
T2 sequence: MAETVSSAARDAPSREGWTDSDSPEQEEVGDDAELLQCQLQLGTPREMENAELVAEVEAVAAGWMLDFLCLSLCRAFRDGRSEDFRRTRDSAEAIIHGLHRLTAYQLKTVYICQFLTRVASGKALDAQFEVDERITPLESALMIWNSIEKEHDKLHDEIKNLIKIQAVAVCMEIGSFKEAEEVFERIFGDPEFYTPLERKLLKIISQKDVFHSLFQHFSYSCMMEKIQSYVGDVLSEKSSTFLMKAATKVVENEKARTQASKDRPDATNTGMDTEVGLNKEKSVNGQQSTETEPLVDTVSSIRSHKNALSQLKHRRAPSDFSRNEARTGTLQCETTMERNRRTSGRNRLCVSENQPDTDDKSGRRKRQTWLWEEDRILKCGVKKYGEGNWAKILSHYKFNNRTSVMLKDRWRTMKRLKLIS
The data set can be described thus: EMSA; reticulocyte lysate; complex co-migrates with J558 mouse TRF. Particulars: label: radiolabelled. The source says:
The mouse cDNA (MTRF12) contained its own initiator codon and was transcribed and translated without further modification using the T3 promoter in its pBluescript vector. Similar to the human cDNA, a ~60 kD protein was synthesized that bound TTAGGG repeats but not TYGGGG or TTAGGC repeats (FIG. 6).
In general terms: A gel shift assay detects complexes by their altered migration in electrophoresis.

B1: 145 bp TTAGGG repeat gel-shift probe (dsDNA)
DNA 1: GTACCCGGGGATCGTGACTCTAGAGGGGCCCTAACCCTAACCCTAACCCTAACCCTAACCCTAACCCTAACCCTAACCCTAACCCTAACCCTAACCCTAACCCTAACCCGGGTCGAATTCGATCTCTAGAGTCGACCTGCAGGCATGC
DNA 2: GCATGCCTGCAGGTCGACTCTAGAGATCGAATTCGACCCGGGTTAGGGTTAGGGTTAGGGTTAGGGTTAGGGTTAGGGTTAGGGTTAGGGTTAGGGTTAGGGTTAGGGTTAGGGTTAGGGCCCCTCTAGAGTCACGATCCCCGGGTAC
For the molecule B1, the binding result in data set [1] is reported as “binds”.

B2: (TTAGGG)12 restriction fragment probe (dsDNA)
DNA 1: TTAGGGTTAGGGTTAGGGTTAGGGTTAGGGTTAGGGTTAGGGTTAGGGTTAGGGTTAGGGTTAGGGTTAGGG
DNA 2: CCCTAACCCTAACCCTAACCCTAACCCTAACCCTAACCCTAACCCTAACCCTAACCCTAACCCTAACCCTAA
For B2, the binding result in data set [2] and in data set [3] was “binds” throughout.
